Test results: patent publication US20120058906A1

How the values were obtained:
[1] = target: rHuman P-Cadherin/Fc Chimera, CF (R&D Systems Cat#861-PC) (human) (UniProt P22223); test: MSD ECL multi-spot plate; Fab 280 nM; blank spot 1691
[2] = target: rHuman P-Cadherin/Fc Chimera, CF (R&D Systems Cat#861-PC) (human) (UniProt P22223); test: MSD ECL multi-spot plate; Fab 70 nM; blank spot 635
[3] = target: rHuman P-Cadherin/Fc Chimera, CF (R&D Systems Cat#861-PC) (human) (UniProt P22223); test: MSD ECL multi-spot plate; Fab 4.375 nM; blank spot 305
[4] = target: rHuman CD44/Fc Chimera, CF (R&D Systems Cat#3660-CD) (human) (UniProt P16070); test: MSD ECL multi-spot assay, antigen spotted on plate, Fab 0.28 uM; blank spot 1773
[5] = target: rHuman Notch-1/Fc Chimera, CF (R&D Systems Cat#3647-TK) (human) (UniProt P46531); test: as above
[6] = target: rHuman ErbB2/Fc Chimera, CF (R&D Systems Cat#1129-ER) (human) (UniProt P04626); test: as above
[7] = target: rHuman HGF R/c-MET/Fc Chimera, CF (R&D Systems Cat#358-MT/CF) (human) (UniProt P08581); test: as above
[8] = target: rHuman IGF-1 sR (IGF-1 sR), CF (R&D Systems Cat#391-GR) (human) (UniProt P08069); test: as above
[9] = target: rHuman P-Cadherin/Fc Chimera, CF (R&D Systems Cat#861-PC) (human) (UniProt P22223); test: MSD ECL multi-spot plate; Fab 17.5 nM; blank spot 304
[10] = target: rHuman CD44/Fc Chimera, CF (R&D Systems Cat#3660-CD) (human) (UniProt P16070); test: ECL (MSD Multi-Spot) titration, antigen spotted on plate; Fab […]; blank spot 4357
[11] = target: rHuman Notch-1/Fc Chimera, CF (R&D Systems Cat#3647-TK) (human) (UniProt P46531); test: as above
[12] = target: Recombinant Human DLL4 (R&D Systems Cat#1506-D4/CF) (human) (UniProt Q9NR61); test: as above
[13] = target: rHuman Erythropoietin R/Fc Chimera, CF (R&D Systems Cat#963-ER) (human) (UniProt P19235); test: as above
[14] = target: rHuman EGF R/Fc Chimera, CF (R&D Systems Cat#344-ER) (human) (UniProt P00533); test: as above
[15] = target: rHuman ErbB2/Fc Chimera, CF (R&D Systems Cat#1129-ER) (human) (UniProt P04626); test: as above
[16] = target: rHuman HGF R/c-MET/Fc Chimera, CF (R&D Systems Cat#358-MT/CF) (human) (UniProt P08581); test: as above
[17] = target: rHuman CD44/Fc Chimera, CF (R&D Systems Cat#3660-CD) (human) (UniProt P16070); test: ECL (MSD Multi-Spot) titration, antigen spotted on plate; Fab 0.312 µM; blank spot 1977
[18] = target: rHuman Notch-1/Fc Chimera, CF (R&D Systems Cat#3647-TK) (human) (UniProt P46531); test: as above
[19] = target: Recombinant Human DLL4 (R&D Systems Cat#1506-D4/CF) (human) (UniProt Q9NR61); test: as above
[20] = target: rHuman Erythropoietin R/Fc Chimera, CF (R&D Systems Cat#963-ER) (human) (UniProt P19235); test: as above
[21] = target: rHuman EGF R/Fc Chimera, CF (R&D Systems Cat#344-ER) (human) (UniProt P00533); test: as above
[22] = target: rHuman ErbB2/Fc Chimera, CF (R&D Systems Cat#1129-ER) (human) (UniProt P04626); test: as above
[23] = target: rHuman HGF R/c-MET/Fc Chimera, CF (R&D Systems Cat#358-MT/CF) (human) (UniProt P08581); test: as above
[24] = target: rHuman CD44/Fc Chimera, CF (R&D Systems Cat#3660-CD) (human) (UniProt P16070); test: ECL (MSD Multi-Spot) titration, antigen spotted on plate; Fab 0.0624 µM; blank spot 960
[25] = target: rHuman Notch-1/Fc Chimera, CF (R&D Systems Cat#3647-TK) (human) (UniProt P46531); test: as above
[26] = target: Recombinant Human DLL4 (R&D Systems Cat#1506-D4/CF) (human) (UniProt Q9NR61); test: as above
[27] = target: rHuman Erythropoietin R/Fc Chimera, CF (R&D Systems Cat#963-ER) (human) (UniProt P19235); test: as above
[28] = target: rHuman EGF R/Fc Chimera, CF (R&D Systems Cat#344-ER) (human) (UniProt P00533); test: as above
[29] = target: rHuman ErbB2/Fc Chimera, CF (R&D Systems Cat#1129-ER) (human) (UniProt P04626); test: as above
[30] = target: rHuman HGF R/c-MET/Fc Chimera, CF (R&D Systems Cat#358-MT/CF) (human) (UniProt P08581); test: as above
[31] = target: rHuman CD44/Fc Chimera, CF (R&D Systems Cat#3660-CD) (human) (UniProt P16070); test: MSD ECL multi-spot assay, antigen spotted on plate, Fab […]; blank spot 1129
[32] = target: rHuman Notch-1/Fc Chimera, CF (R&D Systems Cat#3647-TK) (human) (UniProt P46531); test: as above
[33] = target: Recombinant Human DLL4 (R&D Systems Cat#1506-D4/CF) (human) (UniProt Q9NR61); test: as above
[34] = target: rHuman Erythropoietin R/Fc Chimera, CF (R&D Systems Cat#963-ER) (human) (UniProt P19235); test: as above
[35] = target: rHuman EGF R/Fc Chimera, CF (R&D Systems Cat#344-ER) (human) (UniProt P00533); test: as above
[36] = target: rHuman ErbB2/Fc Chimera, CF (R&D Systems Cat#1129-ER) (human) (UniProt P04626); test: as above
[37] = target: rHuman HGF R/c-MET/Fc Chimera, CF (R&D Systems Cat#358-MT/CF) (human) (UniProt P08581); test: as above
[38] = target: rHuman CD44/Fc Chimera, CF (R&D Systems Cat#3660-CD) (human) (UniProt P16070); test: ECL (MSD multi-spot) titration, Fab at 0.25 uM; blank spot 6344
[39] = target: rHuman CD44/Fc Chimera, CF (R&D Systems Cat#3660-CD) (human) (UniProt P16070); test: ECL (MSD multi-spot) titration, Fab at 0.00391 uM; blank spot 576
[40] = target: rHuman CD44/Fc Chimera, CF (R&D Systems Cat#3660-CD) (human) (UniProt P16070); test: MSD ECL multi-spot assay, antigen spotted on plate, Fab 0.25 uM; blank spot 3693
[41] = target: rHuman HGF R/c-MET/Fc Chimera, CF (R&D Systems Cat#358-MT/CF) (human) (UniProt P08581); test: as above
[42] = target: rHuman CD44/Fc Chimera, CF (R&D Systems Cat#3660-CD) (human) (UniProt P16070); test: ECL (MSD multi-spot) titration, Fab at 0.0625 uM; blank spot 1738
[43] = target: rHuman CD44/Fc Chimera, CF (R&D Systems Cat#3660-CD) (human) (UniProt P16070); test: ECL (MSD multi-spot) titration, Fab at 0.01563 uM; blank spot 906

Sequence of rHuman Erythropoietin R/Fc Chimera, CF (R&D Systems Cat#963-ER) (human) (P19235 25-250, change not shown): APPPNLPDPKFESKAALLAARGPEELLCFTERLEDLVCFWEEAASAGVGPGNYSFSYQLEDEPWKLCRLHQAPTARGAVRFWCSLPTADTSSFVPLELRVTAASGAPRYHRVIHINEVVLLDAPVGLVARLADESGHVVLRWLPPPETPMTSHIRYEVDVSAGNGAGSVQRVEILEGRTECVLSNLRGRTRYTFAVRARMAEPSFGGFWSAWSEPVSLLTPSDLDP

Fab VH1-46_IGHD2-15*01_IGHJ2*01 & L12_IGKJ1*01
ECL signal [1]: 5400 ECL signal | ECL signal [2]: 1820 ECL signal | ECL signal [3]: 469 ECL signal | ECL signal [4]: 4560 | ECL signal [5]: 5280 | ECL signal [6]: 4310 | ECL signal [7]: 5180 | ECL signal [8]: 4640 | ECL signal [9]: 949 ECL signal

Fab VH1-46_IGHD7-27*01_IGHJ2*01 & L6_IGKJ1*01
ECL signal [10]: 7600 | ECL signal [11]: 9450 | ECL signal [12]: 10900 | ECL signal [13]: 9480 | ECL signal [14]: 7830 | ECL signal [15]: 7580 | ECL signal [16]: 10300 | ECL signal [17]: 4170 | ECL signal [18]: 4460 | ECL signal [19]: 5480 | ECL signal [20]: 5020 | ECL signal [21]: 4330 | ECL signal [22]: 3660 | ECL signal [23]: 4690 | ECL signal [24]: 2110 | ECL signal [25]: 2350 | ECL signal [26]: 2580 | ECL signal [27]: 2680 | ECL signal [28]: 2420 | ECL signal [29]: 2150 | ECL signal [30]: 2450 | ECL signal [31]: 2280 | ECL signal [32]: 3950 | ECL signal [33]: 3770 | ECL signal [34]: 4130 | ECL signal [35]: 2500 | ECL signal [36]: 2450 | ECL signal [37]: 3120

Fab VH1-46_IGHD2-15*01_IGHJ2*01 & L2_IGKJ1*01
ECL signal [38]: 23000 | ECL signal [39]: 1300 | ECL signal [40]: 10400 | ECL signal [41]: 5910 | ECL signal [42]: 6750 | ECL signal [43]: 3180
